# In US20250326792A1, “A FORMULATION FOR TREATMENT OF PIGMENTARY DISORDERS” (priority 2022, published 2025):
# PHPP = 3-Phenylpyrazolo[3,4-d]pyrimidine (N-terminal cap)
# Assay: Stability of IS103 API, long term (Condition 2, −20±5° C.)
# Type: physicochemical
# Conditions: for Internal change in attributes: Appearance / Internal change in attributes: Clarity of solution / Internal change in attributes: Color / Internal change in attributes: Color of solution / Internal change in attributes: Odor / API calculated on the anhydrous basis / Appearance white to off white amorphous powder / Related substances (By HPLC) Any Max Impurity / Related substances (By HPLC) Total Impurity / Solubility Sparingly soluble in water / Water Content (By Karl Fischer-Titrator): −20±5° C.
# Experimental: The purpose of stability testing is to provide evidence on how the quality of a drug substance or drug product varies with time under the influence of a variety of environmental factors such as temperature, humidity, etc. and to establish a re-test period for the drug substance or a shelf life for the drug product and recommended storage conditions. The study was conducted according to the WHO and schedule-Y guidelines.
# The IS103 API is a lyophilized white fluffy powder, and it was filled at sterile condition in glass injection vial which has airlock-rubber capping. This container closure system is same as or simulates the packaging proposed for storage and distribution.
# The following test attributes have been selected according to the above said guidelines: • appearance; odour; colour; colour of solution (when IS103 API is soluble in solvent); clarity of solution; degradation and assessment of container closure system.
# Testing frequency for long term studies have been designed as per schedule Y. The long-term stability studies have been conducted on 1, 3, 6, 9, 12, 18, 24 and 36 months.
# The studies were conducted under appropriate storage conditions (with appropriate tolerances) that test IS103 API thermal stability and its sensitivity to moisture. The IS103 API is intended for storage for 36 months. Accordingly, long term stability studies were done for 36 months. The details of the storage conditions have been furnished hereunder.
substance,measurement,setting,value
PHPP-Tyr-Arg-Ser-Arg-Lys-Tyr-Ser-Ser-Trp-Tyr-NH2 ({PHPP}-YRSRKYSSWY-NH2) [IS103],found to be stable for,long term stability condition (of −20±5° C.),36 months
same,Internal change in attributes: Appearance,1st month,No change
same,Internal change in attributes: Clarity of solution,1st month,No change
same,Internal change in attributes: Color,1st month,No change
same,Internal change in attributes: Color of solution,1st month,No change
same,Internal change in attributes: Odor,1st month,No change
same,API calculated on the anhydrous basis,3 M,99.51%
same,Appearance white to off white amorphous powder,3 M,White
same,Related substances (By HPLC) Any Max Impurity,3 M,0.22%
same,Related substances (By HPLC) Total Impurity,3 M,0.37%
same,Solubility Sparingly soluble in water,3 M,Complies
same,Water Content (By Karl Fischer-Titrator),3 M,4.06% w/w
same,Internal change in attributes: Appearance,3rd month,No change
same,Internal change in attributes: Clarity of solution,3rd month,No change
same,Internal change in attributes: Color,3rd month,No change
same,Internal change in attributes: Color of solution,3rd month,No change
same,Internal change in attributes: Odor,3rd month,No change
same,API calculated on the anhydrous basis,12 M,99.11%
same,Appearance white to off white amorphous powder,12 M,White
same,Related substances (By HPLC) Any Max Impurity,12 M,0.36%
same,Related substances (By HPLC) Total Impurity,12 M,0.44%
same,Solubility Sparingly soluble in water,12 M,Complies
same,Water Content (By Karl Fischer-Titrator),12 M,4.45% w/w
same,Internal change in attributes: Appearance,12th month,No change
same,Internal change in attributes: Clarity of solution,12th month,No change
same,Internal change in attributes: Color,12th month,No change
same,Internal change in attributes: Color of solution,12th month,No change
same,Internal change in attributes: Odor,12th month,No change
same,API calculated on the anhydrous basis,18 M,99.03%
same,Appearance white to off white amorphous powder,18 M,White
same,Related substances (By HPLC) Any Max Impurity,18 M,0.62%
same,Related substances (By HPLC) Total Impurity,18 M,0.62%
same,Solubility Sparingly soluble in water,18 M,Complies
same,Water Content (By Karl Fischer-Titrator),18 M,4.54% w/w
same,Internal change in attributes: Appearance,18th month,No change
same,Internal change in attributes: Clarity of solution,18th month,No change
same,Internal change in attributes: Color,18th month,No change
same,Internal change in attributes: Color of solution,18th month,No change
same,Internal change in attributes: Odor,18th month,No change
same,API calculated on the anhydrous basis,24 M,98.95%
same,Appearance white to off white amorphous powder,24 M,White
same,Related substances (By HPLC) Any Max Impurity,24 M,0.60%
same,Related substances (By HPLC) Total Impurity,24 M,0.82%
same,Solubility Sparingly soluble in water,24 M,Complies
same,Water Content (By Karl Fischer-Titrator),24 M,4.61% w/w
same,Internal change in attributes: Appearance,24th month,No change
same,Internal change in attributes: Clarity of solution,24th month,No change
same,Internal change in attributes: Color,24th month,No change
same,Internal change in attributes: Color of solution,24th month,No change
same,Internal change in attributes: Odor,24th month,No change
same,API calculated on the anhydrous basis,36 M,98.73%
same,Appearance white to off white amorphous powder,36 M,White
same,Related substances (By HPLC) Any Max Impurity,36 M,0.84%
same,Related substances (By HPLC) Total Impurity,36 M,0.97%
same,Solubility Sparingly soluble in water,36 M,Complies
same,Water Content (By Karl Fischer-Titrator),36 M,4.56% w/w
same,Internal change in attributes: Appearance,36th month,No change
same,Internal change in attributes: Clarity of solution,36th month,No change
same,Internal change in attributes: Color,36th month,No change
same,Internal change in attributes: Color of solution,36th month,No change
same,Internal change in attributes: Odor,36th month,No change
same,API calculated on the anhydrous basis,Initial,99.73%
same,Appearance white to off white amorphous powder,Initial,White
same,Related substances (By HPLC) Any Max Impurity,Initial,0.14%
same,Related substances (By HPLC) Total Impurity,Initial,0.32%
same,Solubility Sparingly soluble in water,Initial,Complies
same,Water Content (By Karl Fischer-Titrator),Initial,3.91% w/w
